The source of these data is PMC10786891, “Massively parallel profiling of RNA-targeting CRISPR-Cas13d”.

T1: EsCas13d, nuclease-dead (Eubacterium siraeum, UniProt B0MS50, R295A;H300A;R849A;H854A)
T1 sequence: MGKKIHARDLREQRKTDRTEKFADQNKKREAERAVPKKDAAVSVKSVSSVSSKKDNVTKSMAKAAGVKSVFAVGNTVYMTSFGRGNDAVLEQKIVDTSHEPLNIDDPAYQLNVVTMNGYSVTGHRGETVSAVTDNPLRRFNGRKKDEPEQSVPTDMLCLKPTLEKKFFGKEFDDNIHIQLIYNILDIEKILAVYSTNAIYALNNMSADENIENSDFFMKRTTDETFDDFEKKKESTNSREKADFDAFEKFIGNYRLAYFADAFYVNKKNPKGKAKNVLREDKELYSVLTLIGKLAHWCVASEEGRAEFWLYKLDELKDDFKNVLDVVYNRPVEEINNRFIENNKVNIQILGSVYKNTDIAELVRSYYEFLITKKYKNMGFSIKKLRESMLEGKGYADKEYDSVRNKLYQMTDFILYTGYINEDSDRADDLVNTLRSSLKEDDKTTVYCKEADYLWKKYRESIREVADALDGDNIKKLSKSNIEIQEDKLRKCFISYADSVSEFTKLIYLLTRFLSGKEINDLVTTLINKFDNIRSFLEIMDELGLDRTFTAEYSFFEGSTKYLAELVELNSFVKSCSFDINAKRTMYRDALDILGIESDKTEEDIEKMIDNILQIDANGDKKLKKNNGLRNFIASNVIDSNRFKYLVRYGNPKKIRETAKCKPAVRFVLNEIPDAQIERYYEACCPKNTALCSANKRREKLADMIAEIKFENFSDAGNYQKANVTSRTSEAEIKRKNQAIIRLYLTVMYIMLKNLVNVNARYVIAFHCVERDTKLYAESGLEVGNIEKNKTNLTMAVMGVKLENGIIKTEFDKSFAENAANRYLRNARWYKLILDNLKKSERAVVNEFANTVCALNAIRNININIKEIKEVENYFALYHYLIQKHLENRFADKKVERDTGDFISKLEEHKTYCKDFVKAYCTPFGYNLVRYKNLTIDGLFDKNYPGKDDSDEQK

B1: target 1 G12U,A16G (mixed)
RNA 1: CACCCGUGCAAAAAUGCAGGGGUCUAAAACUGAGCGGAUAACCUCUCUAUGG
RNA 2: GGGAAUGGAUCCACAUCUACGAAUUCGUACCAUAGGGAGUUUAUCCGCUCACCGAGAUCGGAAGAGCACACGU
B2: target 1 U8G,U10A (mixed)
RNA 1: CACCCGUGCAAAAAUGCAGGGGUCUAAAACUGAGCGGAUAACCUCUCUAUGG
RNA 2: GGGAAUGGAUCCACAUCUACGAAUUCGUACCAUAGAGAGGUAAGCCGCUCACCGAGAUCGGAAGAGCACACGU
B3: target 1 insG 3' of 8,insG 3' of 6 (mixed)
RNA 1: CACCCGUGCAAAAAUGCAGGGGUCUAAAACUGAGCGGAUAACCUCUCUAUGG
RNA 2: GGGAAUGGAUCCACAUCUACGAAUUCGUACCAUAGAGAGGUUAUGCCGGCUCACCGAGAUCGGAAGAGCACACGU
B4: target 1 C2G,C4G (mixed)
RNA 1: CACCCGUGCAAAAAUGCAGGGGUCUAAAACUGAGCGGAUAACCUCUCUAUGG
RNA 2: GGGAAUGGAUCCACAUCUACGAAUUCGUACCAUAGAGAGGUUAUCCGGUGACCGAGAUCGGAAGAGCACACGU
B5: target 1 insU 3' of 12,insC 3' of 11 (mixed)
RNA 1: CACCCGUGCAAAAAUGCAGGGGUCUAAAACUGAGCGGAUAACCUCUCUAUGG
RNA 2: GGGAAUGGAUCCACAUCUACGAAUUCGUACCAUAGAGAGGUUCUAUCCGCUCACCGAGAUCGGAAGAGCACACGU
B6: target 1 insA 3' of 15,insU 3' of 9 (mixed)
RNA 1: CACCCGUGCAAAAAUGCAGGGGUCUAAAACUGAGCGGAUAACCUCUCUAUGG
RNA 2: GGGAAUGGAUCCACAUCUACGAAUUCGUACCAUAGAGAAGGUUAUUCCGCUCACCGAGAUCGGAAGAGCACACGU
B7: target 1 C4A,C6G (mixed)
RNA 1: CACCCGUGCAAAAAUGCAGGGGUCUAAAACUGAGCGGAUAACCUCUCUAUGG
RNA 2: GGGAAUGGAUCCACAUCUACGAAUUCGUACCAUAGAGAGGUUAUCGGAUCACCGAGAUCGGAAGAGCACACGU
B8: target 1 insC 3' of 22,insU 3' of 18 (mixed)
RNA 1: CACCCGUGCAAAAAUGCAGGGGUCUAAAACUGAGCGGAUAACCUCUCUAUGG
RNA 2: GGGAAUGGAUCCACAUCUACGAAUUCGUACCCAUAUGAGAGGUUAUCCGCUCACCGAGAUCGGAAGAGCACACGU
B9: target 1 insU 3' of 18,insA 3' of 8 (mixed)
RNA 1: CACCCGUGCAAAAAUGCAGGGGUCUAAAACUGAGCGGAUAACCUCUCUAUGG
RNA 2: GGGAAUGGAUCCACAUCUACGAAUUCGUACCAUAUGAGAGGUUAUACCGCUCACCGAGAUCGGAAGAGCACACGU
B10: target 1 C4U,G12A (mixed)
RNA 1: CACCCGUGCAAAAAUGCAGGGGUCUAAAACUGAGCGGAUAACCUCUCUAUGG
RNA 2: GGGAAUGGAUCCACAUCUACGAAUUCGUACCAUAGAGAGAUUAUCCGUUCACCGAGAUCGGAAGAGCACACGU
B11: target 1 G5C,U10A (mixed)
RNA 1: CACCCGUGCAAAAAUGCAGGGGUCUAAAACUGAGCGGAUAACCUCUCUAUGG
RNA 2: GGGAAUGGAUCCACAUCUACGAAUUCGUACCAUAGAGAGGUAAUCCCCUCACCGAGAUCGGAAGAGCACACGU
B12: target 1 insU 3' of 9,insG 3' of 3 (mixed)
RNA 1: CACCCGUGCAAAAAUGCAGGGGUCUAAAACUGAGCGGAUAACCUCUCUAUGG
RNA 2: GGGAAUGGAUCCACAUCUACGAAUUCGUACCAUAGAGAGGUUAUUCCGCUGCACCGAGAUCGGAAGAGCACACGU
B13: target 1 insA 3' of 21,insC 3' of 10 (mixed)
RNA 1: CACCCGUGCAAAAAUGCAGGGGUCUAAAACUGAGCGGAUAACCUCUCUAUGG
RNA 2: GGGAAUGGAUCCACAUCUACGAAUUCGUACCAAUAGAGAGGUUCAUCCGCUCACCGAGAUCGGAAGAGCACACGU
B14: target 1 C6U,A9U (mixed)
RNA 1: CACCCGUGCAAAAAUGCAGGGGUCUAAAACUGAGCGGAUAACCUCUCUAUGG
RNA 2: GGGAAUGGAUCCACAUCUACGAAUUCGUACCAUAGAGAGGUUUUCUGCUCACCGAGAUCGGAAGAGCACACGU
B15: target 1 insG 3' of 19,insG 3' of 16 (mixed)
RNA 1: CACCCGUGCAAAAAUGCAGGGGUCUAAAACUGAGCGGAUAACCUCUCUAUGG
RNA 2: GGGAAUGGAUCCACAUCUACGAAUUCGUACCAUGAGAGGAGGUUAUCCGCUCACCGAGAUCGGAAGAGCACACGU
B16: target 1 G5C,G17C (mixed)
RNA 1: CACCCGUGCAAAAAUGCAGGGGUCUAAAACUGAGCGGAUAACCUCUCUAUGG
RNA 2: GGGAAUGGAUCCACAUCUACGAAUUCGUACCAUACAGAGGUUAUCCCCUCACCGAGAUCGGAAGAGCACACGU
B17: target 1 G15A,C22U (mixed)
RNA 1: CACCCGUGCAAAAAUGCAGGGGUCUAAAACUGAGCGGAUAACCUCUCUAUGG
RNA 2: GGGAAUGGAUCCACAUCUACGAAUUCGUAUCAUAGAAAGGUUAUCCGCUCACCGAGAUCGGAAGAGCACACGU
B18: target 1 del3,del9 (mixed)
RNA 1: CACCCGUGCAAAAAUGCAGGGGUCUAAAACUGAGCGGAUAACCUCUCUAUGG
RNA 2: GGGAAUGGAUCCACAUCUACGAAUUCGUACCAUAGAGAGGUUUCCGCCACCGAGAUCGGAAGAGCACACGU
B19: target 1 insU 3' of 20,insC 3' of 14 (mixed)
RNA 1: CACCCGUGCAAAAAUGCAGGGGUCUAAAACUGAGCGGAUAACCUCUCUAUGG
RNA 2: GGGAAUGGAUCCACAUCUACGAAUUCGUACCAUUAGAGACGGUUAUCCGCUCACCGAGAUCGGAAGAGCACACGU
B20: target 1 insC 3' of 20,insA 3' of 3 (mixed)
RNA 1: CACCCGUGCAAAAAUGCAGGGGUCUAAAACUGAGCGGAUAACCUCUCUAUGG
RNA 2: GGGAAUGGAUCCACAUCUACGAAUUCGUACCACUAGAGAGGUUAUCCGCUACACCGAGAUCGGAAGAGCACACGU
B21: target 1 insC 3' of 18,insU 3' of 15 (mixed)
RNA 1: CACCCGUGCAAAAAUGCAGGGGUCUAAAACUGAGCGGAUAACCUCUCUAUGG
RNA 2: GGGAAUGGAUCCACAUCUACGAAUUCGUACCAUACGAGUAGGUUAUCCGCUCACCGAGAUCGGAAGAGCACACGU
B22: target 1 insU 3' of 22,insG 3' of 18 (mixed)
RNA 1: CACCCGUGCAAAAAUGCAGGGGUCUAAAACUGAGCGGAUAACCUCUCUAUGG
RNA 2: GGGAAUGGAUCCACAUCUACGAAUUCGUACUCAUAGGAGAGGUUAUCCGCUCACCGAGAUCGGAAGAGCACACGU
B23: target 1 insU 3' of 12,insU 3' of 2 (mixed)
RNA 1: CACCCGUGCAAAAAUGCAGGGGUCUAAAACUGAGCGGAUAACCUCUCUAUGG
RNA 2: GGGAAUGGAUCCACAUCUACGAAUUCGUACCAUAGAGAGGUUUAUCCGCUCUACCGAGAUCGGAAGAGCACACGU
B24: target 1 insA 3' of 22,insG 3' of 2 (mixed)
RNA 1: CACCCGUGCAAAAAUGCAGGGGUCUAAAACUGAGCGGAUAACCUCUCUAUGG
RNA 2: GGGAAUGGAUCCACAUCUACGAAUUCGUACACAUAGAGAGGUUAUCCGCUCGACCGAGAUCGGAAGAGCACACGU
B25: target 1 G5U,A9C (mixed)
RNA 1: CACCCGUGCAAAAAUGCAGGGGUCUAAAACUGAGCGGAUAACCUCUCUAUGG
RNA 2: GGGAAUGGAUCCACAUCUACGAAUUCGUACCAUAGAGAGGUUCUCCUCUCACCGAGAUCGGAAGAGCACACGU
B26: target 1 insU 3' of 13,insU 3' of 12 (mixed)
RNA 1: CACCCGUGCAAAAAUGCAGGGGUCUAAAACUGAGCGGAUAACCUCUCUAUGG
RNA 2: GGGAAUGGAUCCACAUCUACGAAUUCGUACCAUAGAGAGUGUUUAUCCGCUCACCGAGAUCGGAAGAGCACACGU
B27: target 1 insA 3' of 17,insC 3' of 10 (mixed)
RNA 1: CACCCGUGCAAAAAUGCAGGGGUCUAAAACUGAGCGGAUAACCUCUCUAUGG
RNA 2: GGGAAUGGAUCCACAUCUACGAAUUCGUACCAUAGAAGAGGUUCAUCCGCUCACCGAGAUCGGAAGAGCACACGU

This data set concerns the target T1, EsCas13d, nuclease-dead. The experiment in a line: crRNA (strand 1, pre-loaded); Mg2+; 40 mM Tris-HCl pH 7.5, 150 mM NaCl, 6 mM MgCl2, 1 mM DTT, 0.1% Tween-20, 0.2 mg/ml BSA; 25 C; 10 min per concentration, then washed. As to conditions: tags: His6-TwinStrep-SUMO cleaved; N-terminal SNAP kept (SNAP-Surface 488); label: 3' end held by stalled T7 RNA polymerase.
B1 came in with an equilibrium dissociation constant (Kd) of 43 ± 5 nM.

B2 displayed a Kd of 19.7 ± 1.2 nM. B3 yielded a Kd of 7.05 ± 0.26 nM.

B4 showed a dissociation constant Kd of 7 ± 0.4 nM. In the case of B5 it was 25 ± 4 nM; in that of B6, 24.4 ± 3.1 nM; in that of B7, 5.4 ± 0.4 nM. Regarding B8, binding was characterised by a dissociation constant (Kd) of 38 ± 9 nM. Under B9 stands 55 ± 4 nM; under B10, 23.7 ± 3 nM.

For the molecule B11, the Kd is 11.8 ± 0.6 nM.

B12 gave a dissociation constant (Kd) of 12.7 ± 0.6 nM. In the case of B13 it was 57 ± 8 nM.

For the molecule B14, the Kd was found to be 8.2 ± 0.4 nM. Under B15 stands 97 ± 16 nM; under B16, 48 ± 6 nM; under B17, 17.7 ± 2.4 nM. Under B18 stands 40 ± 5 nM; under B19, 51 ± 16 nM. In the case of B20 it was 8.76 ± 0.32 nM; in that of B21, 82 ± 33 nM. B22 yielded a Kd of 84 ± 17 nM.

B23 gave a Kd of 8.3 ± 0.8 nM.

Turning to B24, binding was put at a Kd of 12.2 ± 0.9 nM. In the case of B25 it was 60 ± 6 nM; in that of B26, 11.8 ± 1.3 nM. In the case of B27 it was 27 ± 6 nM.

The Kd is the concentration at which binding is half-saturated. Low values mean tighter binding, high ones weaker binding.
